Results: PMC12480156, “From biophysical interaction to structural modeling: bi-terminal G and TGS domains drive rice OsYchF1-OsGAP1 complex formation” (Botanical Studies, 2025)

T1: GST-OsGAP1 (rice (Oryza sativa), UniProt Q6YWF1 1-165)
T1 construct: also called GST-tagged OsGAP1; source: E. coli BL21 (DE3) pLysS, purified; not shown: GST, N-terminal, kept
T1 sequence (looked up): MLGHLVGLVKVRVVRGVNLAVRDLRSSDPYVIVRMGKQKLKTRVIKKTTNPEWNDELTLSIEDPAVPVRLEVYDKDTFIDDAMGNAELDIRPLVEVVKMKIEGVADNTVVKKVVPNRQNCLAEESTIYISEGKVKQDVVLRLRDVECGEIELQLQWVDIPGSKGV


What was measured:
[1] = target: GST-OsGAP1 (rice (Oryza sativa)) (UniProt Q6YWF1); assay: ITC; MicroCal ITC200; 400–500 µM (His)6-OsYchF1, its truncated derivatives or (His)6-tag in the syringe titrated into 20–30 µM GST-OsGAP1 or GST-tag in the chamber; 20 mM Tris-HCl pH 7.5, 20 mM NaCl, 1 mM DTT; 25 °C
[2] = target: T1, GST-OsGAP1; assay: as above; conditions: both partners purified

Molecule | Kd [1] | dH [1] | stoichiometry N [1] | Kd [2] | dH [2] | stoichiometry N [2]
(His)6-OsYchF1 (G domain) (domain or fragment, rice (Oryza sativa), UniProt Q6Z1J6 1-128, looked up, OsYchF1, rice, G domain, aa 1-128; also called (His)6-G; source: E. coli BL21 (DE3) pLysS, purified; not shown: His6, N-terminal, kept; thioredoxin (Trx), N-terminal, kept; S-tag, N-terminal, kept) MPPKASKKDAAPAERPILGRFSSHLKIGIVGLPNVGKSTFFNIVTKLSIPAENFPFCTIDPNEARVYVPDERFDWLCQLYKPKSEVSAYLEINDIAGLVRGAHAGEGLGNAFLSHIRAVDGIFHVLRA | – | – | – | 11.9 ± 6.7 µM | -2 ± 1.4 kcal/mol | 0.5 ± 0.7
(His)6-OsYchF1 (TGS domain) (domain or fragment, rice (Oryza sativa), UniProt Q6Z1J6 303-394, looked up, OsYchF1, rice, TGS domain, aa 303-394; also called (His)6-TGS; source: E. coli BL21 (DE3) pLysS, purified; not shown: His6, N-terminal, kept; thioredoxin (Trx), N-terminal, kept; S-tag, N-terminal, kept) HLIYFFTAGPDEVKCWQIRRQTKAPQAAGTIHTDFERGFICAEVMKFDDLKELGSESAVKAAGKYRQEGKTYVVQDGDIIFFKFNVSGGGKK | – | – | – | 5.1 ± 2.3 µM | -3.4 ± 1.1 kcal/mol | 0.6 ± 0.1

Second part, the molecule after the results:

Kd [1] | dH [1] | stoichiometry N [1] | Kd [2] | dH [2] | stoichiometry N [2] | Molecule
98.7 µM | -0.7 kcal/mol | 0.2 | – | – | – | (His)6-OsYchF1 (No TGS domain) (from UniProt Q6Z1J6 1-302) (domain or fragment)
103 µM | – | 0.6 | – | – | – | full-length (His)6-OsYchF1 (from UniProt Q6Z1J6 1-394) (natural protein)
